From patent US20150030595A1 (ANTIBODY AND RECEPTOR THERAPEUTICS, published 2015) come the findings set out here.

One may read the Kd as a measure of binding affinity in units of concentration. What is called koff is a measure of how fast the partners let go of each other. Broadly, the kon is the rate constant with which the complex forms.

B1: ACVR2B-Fc fusion protein (Fc fusion, not shown: a dimerising Fc or GST; small tags and cut ends)
chain: SGRGEAETRECIYYNANWELERTNQSGLERCEGEQDKRLHCYASWRNSSGTIELVKKGCWLDDFNCYDRQECVATEENPQVYFCCCEGNFCNERFTHLPEAGGPEVTYEPPPTAPTLLT
notes: also called water-soluble ACVR2B
B8: DLK1-Fc fusion protein (Fc fusion, not shown: a dimerising Fc or GST)
chain: AECFPACNPQNGFCEDDNVCRCQPGWQGPLCDQCVTSPGCLHGLCGEPGQCICTDGWDGELCDRDVRACSSAPCANNGTCVSLDDGLYECSCAPGYSGKDCQKKDGPCVINGSPCQHGGTCVDDEGRASHASCLCPPGFSGNFCEIVANSCTPNPCENDGVCTDIGGDFRCRCPAGFIDKTCSRPVTNCASSPCQNGGTCLQHTQVSYECLCKPEFTGLTCVKKRALSPQQVTRLPSGYGLAYRLTPGVHELPVQQPEHRILKVSMKELNKKTPLLTEG
notes: also called DLK-Fc

The target of test [1] is T1, EGF5-6-Fc (DLK1 deletion mutant without the 1st to 4th EGF-like repeat domains) (human, UniProt P80370 170-302).
T1 construct: also called 5M-Fc; not shown: human antibody Fc region of the pYK602-Fc vector and any SfiI-junction residues
T1 sequence: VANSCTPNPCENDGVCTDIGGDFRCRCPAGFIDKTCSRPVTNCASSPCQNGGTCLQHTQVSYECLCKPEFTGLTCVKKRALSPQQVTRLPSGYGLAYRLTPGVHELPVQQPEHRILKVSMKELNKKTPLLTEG
The test is described as follows: SPR (ProteOn XPR36), ACVR2B-Fc coated on the chip, Fc channel as reference. Here is the method: (§1) This experiment was performed using a ProteOn XPR36 instrument (Bio-Rad). First, a sensor chip (GLC) was activated by reacting 0.1 M EDC and 0.025 M sulfo-NHS (Bio-Rad) for 60 seconds. […] The coating procedure was completed by allowing 1 M ethanolamine-HCl) (pH 8.5) to flow at the coated chip for 200 seconds. To test the bound proteins, the chip was rotated at an angle of 90°, and stabilized by allowing DPBST (PBS with 0.005% Tween 20) to flow on the chip for 30 minutes.

Test [2] deals with T2, C-terminally active myostatin (R&D systems) (UniProt O14793 267-375, limits assumed).
T2 construct: mature
T2 sequence (looked up): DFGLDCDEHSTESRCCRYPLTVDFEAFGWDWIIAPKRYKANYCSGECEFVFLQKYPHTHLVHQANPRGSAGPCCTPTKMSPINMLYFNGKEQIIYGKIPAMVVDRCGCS
Description: ELISA, coating 1 ug/ml myostatin, binding 10 nM, anti-human Fc HRP. In general terms: In an ELISA, binding on a coated surface is turned into a signal by an enzyme label.

Test [3] deals with B1. The test is described as follows: SPR (ProteOn XPR36), ACVR2B-Fc coated on the chip, Fc channel as reference. Here is the method: as §1
Test [4] deals with T2, C-terminally active myostatin (R&D …). Description: ELISA on coated myostatin (1 ug/ml), Fc-HRP.
The test “DLK1-Fc fusion protein” concerns the target B8. The test is described as follows: SPR (ProteOn XPR36).
Test [5] deals with B1. Description: SPR (ProteOn XPR36), ACVR2B-Fc coated. Here is the method: as §1
Test [6] deals with T2, C-terminally active myostatin (R&D …). The test is described as follows: ELISA on coated myostatin, one site binding (hyperbola) fit. As for the experimental part: An immunoplate was coated overnight with 1 μg/ml of C-terminally active myostatin (R&D systems) at 4° C., washed three times with 0.05% PBST Tween 20, and then blocked with 4% skim milk/0.05% PBST Tween 20 at room temperature for 30 minutes. […] Finally, when the reaction was blocked with 2.5 M H₂SO₄, the optical densities were measured and analyzed at 420 nm.
Based on the experiment, a KD value was also determined by analyzing one site binding (hyperbola) using a GraphPad Reism 4 program.

The target in test [7] is B1. The test is described as follows: SPR (ProteOn XPR36), ACVR2B-Fc coated, in the presence of B09.

For B1, the binding result in test [1] is recorded as “binds”.

B2: EGF6-Fc (Fc fusion)
chain: PVTNCASSPCQNGGTCLQHTQVSYECLCKPEFTGLTCVKKRALSPQQVTRLPSGYGLAYRLTPGVHELPVQQPEHRILKVSMKELNKKTPLLTEG
notes: also called 6M-Fc; not shown: human antibody Fc region of the pYK602-Fc vector and any SfiI-junction residues
For B2, the binding result was “binds” in test [2] and “no binding” with ACVR2B-Fc fusion protein [3].

B3: ACVR1A-Fc (Fc fusion, UniProt Q04771 21-124, looked up)
chain: MEDEKPKVNPKLYMCVCEGLSCGNEDHCEGQQCFSSLSINDGFHVYQKGCFQVYEQGKMTCKTPPSPGQAVECCQGDWCNRNITAQLPTKGKSFPGTQNFHLEV
notes: Control; origin not described; not shown: Fc; not described
As to B3, the binding result in test [4] is recorded as “no binding (tested: 1 nM)”.

B4: EGF3-6-Fc (DLK1 deletion mutant without the 1st and 2nd EGF-like repeat domains) (Fc fusion)
chain: DVRACSSAPCANNGTCVSLDDGLYECSCAPGYSGKDCQKKDGPCVINGSPCQHGGTCVDDEGRASHASCLCPPGFSGNFCEIVANSCTPNPCENDGVCTDIGGDFRCRCPAGFIDKTCSRPVTNCASSPCQNGGTCLQHTQVSYECLCKPEFTGLTCVKKRALSPQQVTRLPSGYGLAYRLTPGVHELPVQQPEHRILKVSMKELNKKTPLLTEG
notes: also called 3M-Fc; not shown: human antibody Fc region of the pYK602-Fc vector and any SfiI-junction residues
As to B4, the binding result (in test [2]; with ACVR2B-Fc fusion protein [3]) was “binds” in each case.

B5: JM-Fc (juxtamembrane region of DLK1, all six EGF-like repeat domains deleted) (Fc fusion)
chain: KKRALSPQQVTRLPSGYGLAYRLTPGVHELPVQQPEHRILKVSMKELNKKTPLLTEG
notes: also called juxtamembrane region (JM); not shown: human antibody Fc of the pYK602-Fc vector and the SfiI junction residues between JM and Fc
With B5, the binding result is recorded as “binds” in test [2] and “no binding” with ACVR2B-Fc fusion protein [3].

B6: EGF4-6-Fc (Fc fusion)
chain: KDGPCVINGSPCQHGGTCVDDEGRASHASCLCPPGFSGNFCEIVANSCTPNPCENDGVCTDIGGDFRCRCPAGFIDKTCSRPVTNCASSPCQNGGTCLQHTQVSYECLCKPEFTGLTCVKKRALSPQQVTRLPSGYGLAYRLTPGVHELPVQQPEHRILKVSMKELNKKTPLLTEG
notes: also called 4M-Fc; not shown: human antibody Fc region of the pYK602-Fc vector and any SfiI-junction residues
For B6, the binding result (in test [2]; with ACVR2B-Fc fusion protein [3]) was “binds” each time.

B7: human antibody B09 (full-length IgG) (antibody, V domains shown)
VH: QMQLVESGGRLVRPGGSLRLSCAASGFPFTSYAMNWVRQTPGKGLEWVSTITATSGKTYYADSVKGRFTISRDNSRNTLFLQMNSLRAEDTAVYYCVRGESCSGGACSDFDYWGQGALVTVSS
VL: QLVLTQPASVSGSPGQSVTISCTGTSSDIGRYNRVSWYQHHPGKAPKLILNDVTTRPSGFSNRFSGSKSGNTASLTISGLQAEDEADYSCGSYAGSYTYVFGTGTKVTVL
notes: Converted into full-length IgG with pNATAB H and pNATAB L vectors; also called B09 antibody; DLK1 antibody B09
With B7, in the test with DLK1-Fc fusion protein, binding was put at a Kd of 10.9 pM, the koff turned out to be 6.49e-05 s⁻¹ and the kon was 3.41e+06 M⁻¹ s⁻¹.

As for B8, in the test with ACVR2B-Fc fusion protein [5], the Kd was 1310 pM, the koff stood at 0.000434 s⁻¹ and the kon came out at 331000 M⁻¹ s⁻¹. The molecule further showed a Kd in test [6] of 22800 pM. For the same molecule, in the test with ACVR2B-Fc fusion protein [7], the Kd came to 407 pM, the koff turned out to be 0.000255 s⁻¹ and the kon stood at 626000 M⁻¹ s⁻¹.
